From the supplement of paper PMC9170038 come the findings set out here.

For data set [1], the system named is K4 kissing-loop RNA reporter. As to the kind of experiment: apparent KD of K4 kissing-loop reporter; higher = weaker reporter binding. Conditions: Eterna round: R107. The method, then: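 RNA-MaP round R107: designed RNA switches with theophylline, tryptophan, arginine or FMN aptamers are transcribed on-chip within common flanks. They are titrated with a labelled K4 kissing-loop RNA reporter in RNA-MaP buffer (100 mM Tris pH 7.5, 80 mM KCl, 4 mM MgCl2), without ligand or with the indicated ligand. Median apparent KD per design.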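 Further: bound reporter read as fluorescence of individual clusters on recovered sequencing chips by microscopy, with normalized cluster intensities fitted with a binding model.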

The subject of another data set is MS2 coat protein. As to the kind of experiment: apparent KD of MS2 coat protein; designed switch direction (-1 OFF switch, 1 ON switch): -1; higher = weaker reporter binding. In short, it runs like this:
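On Illumina chips, designed RNA switches with common flanks were made by stalled E. coli RNA polymerase. Titrations with SNAP-549-labelled MS2 coat protein, doubling from 0.7 or 1.5 nM to 3 µM, were done with no input, with 200 uM small-molecule ligand, or with an oligonucleotide input. Apparent KD is the median per design over clusters, from curve fits of normalised cluster fluorescence.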

The mark [2] stands for this setting: input ligand: theophylline 20 uM.
Setting [3] is: input ligand: tryptophan 2.4 mM.

In the case of “AACGGCCAGUCGGCCGCCACUCAAAGCAGUGAUGUUGCUAACUUUCUAAAAGAGUGAUGUUCUUAGAGGACCGGGACUAAUGUAA [Exclusion Tryptophan B GF 2]”, the “apparent KD of K4 kissing-loop reporter” value in data set [1] (input ligand: FMN 200 uM) is 115 nM; in data set [1] (input ligand: arginine 13.2 mM), 147 nM; in data set [1] (input ligand: none) it was 125 nM; in data set [1] (setting [2]), 143 nM; in data set [1] (setting [3]), 102 nM.
For “AACGGCCAGUCGGCCGCCACUCGAUGCAGUGAUGUUGCUAACUUUCUAAAAGAGUGAUGUUCAUGGAGGACCGGGACUAGUGUAA [#30 K4 Tryptophan B Exclusion]”, the “apparent KD of K4 kissing-loop reporter” value was found to be 317 nM in data set [1] (input ligand: FMN 200 uM); 244 nM in data set [1] (input ligand: arginine 13.2 mM); 291 nM in data set [1] (input ligand: none); 255 nM in data set [1] (setting [2]); 241 nM in data set [1] (setting [3]).
The matching figures for “AACGUUUUGAGAAGGAGCGCGAUAAGCAGUGAUGUUGCUAUAAUUCUAUUUCUAUUUAAUUCGCAGGUAGGUCGCUCAAUACGUA [JR_SSArginiB_Sub019]”: 136 nM, 134 nM, 134 nM, 138 nM and 119 nM.
As to “AACUGUCAAGGACAACAUUACUGAGGUGAUACCAGCAUCGAAAGAUGCCCUUGGCAGCACCAACUUGCAGUGAUGUUGCAAGUAA [Design6]”, the “apparent KD of K4 kissing-loop reporter” value in data set [1] (input ligand: FMN 200 uM) stood at 212 nM; in data set [1] (input ligand: arginine 13.2 mM), 184 nM; in data set [1] (input ligand: none), 212 nM; in data set [1] (setting [2]), 279 nM; in data set [1] (setting [3]), 214 nM.
On to “AAGAGGUAGGCGGCCGCCACUAGUUGUGAACACAUACGAGCCAGUGAUGUUGGUAUGGUGGGCGGUAGGACCGGGCCUACCUGAA [Exclusion - Tryptophan B (Freestyle 18)]”, for which the “apparent KD of K4 kissing-loop reporter” value in data set [1] (input ligand: FMN 200 uM) was found to be 427 nM; in data set [1] (input ligand: arginine 13.2 mM) it was 481 nM; in data set [1] (input ligand: none), 496 nM; in data set [1] (setting [2]), 454 nM; in data set [1] (setting [3]) it was 475 nM.
“UUUUCUUUUGUGAGGAUAUACUUGUUUUUUUUUUUGUAGAAGGCACAUGAGGAUCACCCAUGUUUUCUUUUCUG [JR_BME4_Sub026] (puzzle: Brourd's mod of Exclusion 4)”: the “apparent KD of MS2 coat protein” value with MS2 coat protein (Eterna round: R95, input ligand: microRNA oligo, concentration not stated) is 20.6 nM.
As for “UUUUGGCAAGCGAGAUCCUACAUGAGGAUCACCCAUGUUGACCAUGGUUUCCAUGGUCAUUUUGCUCGUCUUGUGUG [jl TITIN mod 2] (Eterna round: R97, puzzle: Sensor, turn-off variant 1)”, the “apparent KD of MS2 coat protein” value was 31.8 nM with MS2 coat protein (input ligand: FMN 200 uM) and 32.3 nM in the data set on MS2 coat protein (input ligand: none).
The matching figures for “UUUUGUCGUGACAUGGGUGACAUGAGGAUCACCCAUGUUACAAGCUUGUUGCUCGUCUUAUAAUUAACCCAUGUCAU [LRO Sensor-off var1-18 mod of Stov1-13-A1 by Brourd] (Eterna round: R97, puzzle: Sensor, turn-off variant 1)”: 44.7 nM and 49.1 nM.
